Assay results as given in patent US20190241670A1 (BIOCON, published 2019).

Target: T1, rhCD6FC/Chimera (R and D systems) (human, UniProt P30203 25-398)
T1 construct: Bought reagent (R and D systems), coated on the ELISA plate; also called CD6 receptor; Fc part of the bought chimera not given
T1 sequence (looked up): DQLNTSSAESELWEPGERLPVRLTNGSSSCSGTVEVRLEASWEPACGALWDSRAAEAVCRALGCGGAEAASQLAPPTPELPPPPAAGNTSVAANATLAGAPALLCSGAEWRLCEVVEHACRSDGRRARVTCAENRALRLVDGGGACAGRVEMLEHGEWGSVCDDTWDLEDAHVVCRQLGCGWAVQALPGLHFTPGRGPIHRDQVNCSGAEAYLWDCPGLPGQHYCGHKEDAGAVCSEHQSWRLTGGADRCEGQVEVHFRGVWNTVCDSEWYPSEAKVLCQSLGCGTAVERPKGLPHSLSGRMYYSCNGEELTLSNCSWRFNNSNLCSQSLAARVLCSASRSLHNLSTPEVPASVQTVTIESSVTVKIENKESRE
Test: ELISA, CD6-Fc coated plate, fixed T1h with varying ALCAM-Fc as competitor
Procedure: When varying concentrations of ALCAM-Fc was incubated along with a fixed concentration of T1h in a CD6-Fc coated ELISA plate, T1h was detected at all concentration of ALCAM-Fc.
The rhCD6FC/Chimera (R and D systems) (100 ≈g/ml) was diluted in coating buffer and 100 ≈l was added to each well of a 96 well Nunc-Maxisorp plate. The plate was then incubated at 4éC overnight. The Plate was washed thrice with PBS Tween 20. Subsequently, 200 ≈l of blocking solution (2% BSA+0.1% Tween 20 in 1×PBS) was added and incubated for 1 hour at 37éC. After incubation, the plate was washed again with PBS Tween thrice, followed by the addition of T1h monoclonal antibody (0.2 mg/ml) and .rhA LCAMFc (R and D systems) at varying concentrations. This was then incubated for an hour at 37éC. The plate was washed 3 times subsequently with PBS Tween. To the wells 200 ≈l of anti human IgG (Fab)₂ ALP (1:20000) diluted in blocking buffer was added and incubated for 1 hour at 37éC. The plate was washed thrice with PBS tween and 200 ≈l of p-Nitrophenyl Phosphate (PNPP) substrate is added to each well and incubated at 37éC till color develops around 15 minutes. Reading was taken at 405 nm using a BIOTEK Micro Plate Reader.

binding result: binds
B1: humanized IgG1 isotype anti-CD6 monoclonal antibody (T1h) (antibody, V domains shown)
VH: EVQLVESGGGLVKPGGSLKLSCAASGFKFSRYAMSWVRQAPGKRLEWVATISSGGSYIYYPDSVKGRFTISRDNVKNTLYLQMSSLRSEDTAMYYCARRDYDLDYFDSWGQGTLVTVSS
VL: DIQMTQSPSSLSASVGDRVTITCKASRDIRSYLTWYQQKPGKAPKTLIYYATSLADGVPSRFSGSGSGQDYSLTISSLESDDTATYYCLQHGESPFTLGSGTKLEIK
notes: also called humanized IOR-T1; Itolizumab
